Source: article PMC5885141 (Molecular imaging and biology : MIB : the official …, 2014)
Where two headings read alike, the source gives them in different places. IR800 = IRDye800CW

Tests used:
[1] = molecular target: T1, gastrin-releasing peptide receptor (human, UniProt P30550 1-384); test: radioligand binding
[2] = molecular target: T1, gastrin-releasing peptide receptor; test: radioligand binding; remark: listed apart in the source

T1 sequence (P30550 whole entry): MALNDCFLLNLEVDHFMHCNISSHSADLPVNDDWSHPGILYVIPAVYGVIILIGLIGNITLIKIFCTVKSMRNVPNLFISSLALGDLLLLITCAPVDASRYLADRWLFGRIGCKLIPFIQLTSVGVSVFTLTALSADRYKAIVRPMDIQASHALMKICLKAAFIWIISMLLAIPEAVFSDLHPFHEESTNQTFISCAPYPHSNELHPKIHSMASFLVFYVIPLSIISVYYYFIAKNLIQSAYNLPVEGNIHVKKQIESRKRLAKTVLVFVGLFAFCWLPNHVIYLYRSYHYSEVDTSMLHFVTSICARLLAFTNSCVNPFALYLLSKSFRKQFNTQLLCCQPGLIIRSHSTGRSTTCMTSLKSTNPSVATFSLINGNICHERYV

Binder IR800-GSGQWAVGHLM-NH2 [IR800-GSG-t-BBN] has an IC50 [1] of 57.4 nM and an IC50 [2] of 56 nM.
